Reference: patent publication US20220204643A1 (published 2022)
Blank lines part the entries; values can stand above or below the binder they belong to.

Tests used:
[1] = biological target: T1, NFKB inhibitor beta, transcript variant 1 (human, UniProt Q15653 1-356)
T1 construct: also called NFKBIB
T1 sequence: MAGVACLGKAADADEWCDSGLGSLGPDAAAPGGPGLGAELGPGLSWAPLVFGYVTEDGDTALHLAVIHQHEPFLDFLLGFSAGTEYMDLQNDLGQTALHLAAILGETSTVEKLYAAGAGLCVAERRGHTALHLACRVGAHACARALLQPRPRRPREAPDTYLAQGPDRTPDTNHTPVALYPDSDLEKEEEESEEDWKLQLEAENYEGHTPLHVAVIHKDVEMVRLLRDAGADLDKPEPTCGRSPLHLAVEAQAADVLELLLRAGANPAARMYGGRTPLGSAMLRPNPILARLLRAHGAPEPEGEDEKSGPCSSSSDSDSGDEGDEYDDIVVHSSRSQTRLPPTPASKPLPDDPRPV

[2] = biological target: T2, cyclin dependent kinase 2 associated protein 2, transcript variant 1 (human, UniProt O75956 1-126)
T2 construct: also called CDK2AP2
T2 sequence: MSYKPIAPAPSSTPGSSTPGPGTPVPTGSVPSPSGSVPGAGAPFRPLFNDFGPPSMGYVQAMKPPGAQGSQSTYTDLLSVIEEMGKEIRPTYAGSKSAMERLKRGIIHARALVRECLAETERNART

chymotrypsinogen B2 = biological target: T3, chymotrypsinogen B2 (human, UniProt Q6GPI1 19-263, limits assumed)
T3 construct: also called CTRB2
T3 sequence (Q6GPI1 19-263 limits assumed): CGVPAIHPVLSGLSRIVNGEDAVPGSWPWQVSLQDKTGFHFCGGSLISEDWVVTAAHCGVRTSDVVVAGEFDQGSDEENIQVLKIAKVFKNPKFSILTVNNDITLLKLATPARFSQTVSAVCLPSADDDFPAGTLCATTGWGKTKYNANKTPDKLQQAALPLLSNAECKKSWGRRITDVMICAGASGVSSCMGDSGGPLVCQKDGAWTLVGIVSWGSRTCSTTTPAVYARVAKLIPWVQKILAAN

[3] = biological target: T4, transforming growth factor beta induced (human, UniProt Q15582 24-683, limits assumed)
T4 construct: also called TGFBI
T4 sequence: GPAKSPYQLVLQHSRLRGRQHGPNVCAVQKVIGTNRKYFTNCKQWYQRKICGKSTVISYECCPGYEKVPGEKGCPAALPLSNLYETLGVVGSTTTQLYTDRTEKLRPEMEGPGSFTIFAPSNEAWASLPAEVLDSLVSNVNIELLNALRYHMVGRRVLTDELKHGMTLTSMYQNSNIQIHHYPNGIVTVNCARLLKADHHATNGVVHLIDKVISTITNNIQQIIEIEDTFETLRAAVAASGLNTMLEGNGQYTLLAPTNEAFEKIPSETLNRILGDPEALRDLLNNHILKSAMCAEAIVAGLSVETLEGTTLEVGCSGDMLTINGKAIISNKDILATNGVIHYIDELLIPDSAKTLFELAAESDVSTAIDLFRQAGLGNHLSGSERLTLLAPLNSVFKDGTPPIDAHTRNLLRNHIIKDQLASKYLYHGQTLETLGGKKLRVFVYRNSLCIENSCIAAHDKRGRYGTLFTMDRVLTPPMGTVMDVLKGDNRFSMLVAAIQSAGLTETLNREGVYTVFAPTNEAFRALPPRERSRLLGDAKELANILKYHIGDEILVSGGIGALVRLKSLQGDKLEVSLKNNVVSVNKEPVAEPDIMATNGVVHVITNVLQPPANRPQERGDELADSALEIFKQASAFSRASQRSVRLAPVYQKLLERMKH

[4] = biological target: BCL2 apoptosis regulator, transcript variant alpha (human, UniProt P10415 1-239)
Chain of BCL2 apoptosis regulator, transcript variant alpha (P10415 whole entry, change not shown): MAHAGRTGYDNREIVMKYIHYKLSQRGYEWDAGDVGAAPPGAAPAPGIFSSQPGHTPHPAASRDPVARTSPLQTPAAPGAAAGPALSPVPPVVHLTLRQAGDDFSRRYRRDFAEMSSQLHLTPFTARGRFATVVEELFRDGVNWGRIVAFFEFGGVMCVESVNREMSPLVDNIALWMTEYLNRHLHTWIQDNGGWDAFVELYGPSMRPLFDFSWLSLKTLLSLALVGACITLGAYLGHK

[5] = biological target: T5, Transforming growth factor beta 3 (human, UniProt P10600 24-412)
T5 construct: also called TGFB3
T5 sequence: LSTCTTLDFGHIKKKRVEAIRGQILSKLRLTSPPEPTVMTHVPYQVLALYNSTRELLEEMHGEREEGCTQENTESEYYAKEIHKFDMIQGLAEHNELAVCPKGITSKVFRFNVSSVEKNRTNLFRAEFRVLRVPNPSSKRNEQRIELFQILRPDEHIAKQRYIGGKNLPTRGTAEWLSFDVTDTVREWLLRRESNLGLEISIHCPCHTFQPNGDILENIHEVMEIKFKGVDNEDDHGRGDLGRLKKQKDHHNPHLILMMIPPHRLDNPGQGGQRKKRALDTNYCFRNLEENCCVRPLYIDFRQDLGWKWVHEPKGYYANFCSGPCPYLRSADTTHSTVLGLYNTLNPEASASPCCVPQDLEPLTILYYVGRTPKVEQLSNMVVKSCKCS

[6] = biological target: T6, glyoxylate and hydroxypyruvate reductase (human, UniProt Q9UBQ7 1-328)
T6 construct: also called GRHPR
T6 sequence: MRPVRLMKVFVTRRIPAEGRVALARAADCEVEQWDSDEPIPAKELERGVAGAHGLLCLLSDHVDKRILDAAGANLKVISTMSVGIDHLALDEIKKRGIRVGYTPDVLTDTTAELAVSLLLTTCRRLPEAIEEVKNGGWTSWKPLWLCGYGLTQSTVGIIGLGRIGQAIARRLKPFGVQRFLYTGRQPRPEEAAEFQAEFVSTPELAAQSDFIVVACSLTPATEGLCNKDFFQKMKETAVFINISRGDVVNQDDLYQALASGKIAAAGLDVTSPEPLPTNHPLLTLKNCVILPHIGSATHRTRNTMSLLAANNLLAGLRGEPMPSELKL

programmed cell death 1 = biological target: T7, programmed cell death 1 (human, UniProt Q15116 25-288, limits assumed)
T7 construct: also called PDCD1
T7 sequence (Q15116 25-288 limits assumed): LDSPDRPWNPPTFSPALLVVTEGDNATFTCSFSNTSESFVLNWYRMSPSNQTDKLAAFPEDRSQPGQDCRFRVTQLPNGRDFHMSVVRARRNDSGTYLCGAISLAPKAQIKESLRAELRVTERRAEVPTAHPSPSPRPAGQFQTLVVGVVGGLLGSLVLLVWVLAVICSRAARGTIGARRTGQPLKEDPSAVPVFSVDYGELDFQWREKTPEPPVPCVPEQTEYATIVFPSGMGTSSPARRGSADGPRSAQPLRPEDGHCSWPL

[7] = biological target: T8, HAUS augmin like complex subunit 1, transcript variant 1 (human, UniProt Q96CS2 1-278)
T8 construct: also called HAUS1
T8 sequence: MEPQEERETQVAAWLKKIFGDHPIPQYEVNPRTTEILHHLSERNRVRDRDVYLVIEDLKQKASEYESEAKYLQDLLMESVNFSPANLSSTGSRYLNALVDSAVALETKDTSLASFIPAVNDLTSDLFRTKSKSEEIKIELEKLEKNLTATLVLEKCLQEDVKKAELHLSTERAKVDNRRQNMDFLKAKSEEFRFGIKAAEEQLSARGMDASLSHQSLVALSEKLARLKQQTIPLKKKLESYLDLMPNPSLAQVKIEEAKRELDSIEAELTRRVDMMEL

[8] = biological target: T9, phosphoglucomutase 2 like 1 (human, UniProt Q6PCE3 1-622 at identity 1.00), limits assumed)
T9 construct: also called PGM2L1
T9 sequence: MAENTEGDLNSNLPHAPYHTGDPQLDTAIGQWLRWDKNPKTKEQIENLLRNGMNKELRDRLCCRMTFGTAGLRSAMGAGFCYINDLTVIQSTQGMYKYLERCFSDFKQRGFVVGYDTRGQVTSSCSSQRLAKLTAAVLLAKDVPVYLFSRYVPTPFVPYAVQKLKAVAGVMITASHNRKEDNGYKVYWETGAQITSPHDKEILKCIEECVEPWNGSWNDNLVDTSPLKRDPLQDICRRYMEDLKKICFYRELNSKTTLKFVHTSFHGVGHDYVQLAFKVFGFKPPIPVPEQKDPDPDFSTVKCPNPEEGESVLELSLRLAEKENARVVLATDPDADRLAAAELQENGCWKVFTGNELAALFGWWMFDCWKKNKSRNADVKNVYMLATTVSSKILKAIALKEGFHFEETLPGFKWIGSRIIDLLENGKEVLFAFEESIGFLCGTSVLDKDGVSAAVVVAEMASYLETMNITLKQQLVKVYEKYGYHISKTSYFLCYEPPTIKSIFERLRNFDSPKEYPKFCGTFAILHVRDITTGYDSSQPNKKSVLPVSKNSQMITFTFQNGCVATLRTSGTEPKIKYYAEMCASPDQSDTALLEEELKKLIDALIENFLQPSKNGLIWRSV

B1: TSTO1005 (antibody, V domains shown)
VH: EVQLVESGGGVVQPGGSLRLSCAASGFTFEDFGMHWVRQAPGKGLEWVAFTRFDGSEKYYVDSVKGRFTVSRDNSKNTLFLHMNSLRPEDTAVYYCAKTRSYSSADTTRPNAPGYWGQGTLVTVSS
VL: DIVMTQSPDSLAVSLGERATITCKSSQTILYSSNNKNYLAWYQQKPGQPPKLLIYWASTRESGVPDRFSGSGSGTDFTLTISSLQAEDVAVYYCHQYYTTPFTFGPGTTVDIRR
binding result [1]: binds
binding result [2]: binds

B2: TSTO1004 (antibody, V domains shown)
VH: QVQLVQSGSELKKPGASVKVSCTSSGYVFTSFGVSWVRQVPGQGPEWMGWISPYTRQTKYAQSLQGRITLTADTSTNTTYMELRSLRSDDTAMYYCVREEFGVVRGPNPFDVWGQGTMVTVSS
VL: DIQMTQAPSTLSASVGDRVSITCRASQNIRDFLAWYQQKPGRAPDLLIYRASTLEKGVSARFSGSGSGTEFTLTITGLQPDDFATYYCQQYSDYSTFGGGTRVEIK
binding result (chymotrypsinogen B2): binds

B5: TSTO1003 (antibody, V domains shown)
VH: QVQLKQSGGGVVQPGRSLTLSCVASGLTFSDYGMHWVRQAPGKGLEWVAVIWHDGSKTNYADSVKGRIIISRDNSKSTVYLQMNRLRGEDTAVYYCATSHGGLVPGGENYWGQGTLVTVSS
VL: SDELTQPPSVSVSPGQTARITCSGDALAKEYAYWYQQKSGQAPVLVISKDTERPSGIPARFSGSSSGTTVTLTISGVQSDDEADYYCQSADSSLTYWLFGGGTKLTVLR
binding result [5]: binds

B6: TTES1004 (antibody, V domains shown)
VH: EVQLVESGGGLVQPGGSLRLSCVASGFTFSSYSMNWVRQAPGKGLKWVSYISSSRSTIYNADSVKGRFTISRDNAKKSLYLQMNSLRAEDTAVYYCARVSVAAPTCLDYWGQGTLVTVSS
VL: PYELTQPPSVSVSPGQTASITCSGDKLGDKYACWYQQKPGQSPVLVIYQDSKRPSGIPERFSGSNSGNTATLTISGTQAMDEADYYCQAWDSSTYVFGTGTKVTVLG
binding result [6]: binds

B7: TTES1003 (antibody, V domains shown)
VH: VVQLVESGGGLVQPGGSLRLSCSASGFTFSSYAMHWVRQAPGKGLEYVSAISSNGGSTYYADSVKGRFTISRDNSKNTLYLQMSSLRAEDTAVYYCVKSPVAANDAFDIWGQGTMVTVSS
VL: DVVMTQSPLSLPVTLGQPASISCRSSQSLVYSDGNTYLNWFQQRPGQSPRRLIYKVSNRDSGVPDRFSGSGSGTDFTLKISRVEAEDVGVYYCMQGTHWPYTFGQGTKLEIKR
binding result (programmed cell death 1): binds

B9: TTES1002 (antibody, V domains shown)
VH: QVQLQESGPGLVKPSETLSLICTVSGASVNSGTHFWSWIRQPPGKGLEWIGYVYYSGNTNYNPSLKSRVAISVDTSKNQFSLKLTSVTSADTAVYYCARDFDDGYDIRYWGQGTRVSVSS
VL: QSALTQPASVSGSPGQSITISCTGSSNDIGRYKYVSWFQHHPGRAPKLIIYEVNNRPSGLSHRFSGSKSGNTASLTISGLQAEDEADYYCCSYTSSLTYVFGTGTAVTVL
binding result [8]: binds

Further lines, results first:

binding result [3]: binds
B3: TSTO1008 (antibody, V domains shown)
VH: AVQLVQSGAEVKKPGESLRISCKGSGYSFSTYWIIWVRQMPGKGLEWIGRFDPSDSYNVNSPSFQGHVTISADTSINTAYLQWSSLKASDSAMYYCARRSDKAVPGTFDQWGQGTLVTVSS
VL: RSVLTQPPSVSAAPGQKVIISCSGSSSNIGNNYVSWYQQFLGTAPKLLIYDTDKRPSGIPDRFSGSKSGTSATLGITGLQTGDEAHYYCATWDSSLRAGPVVFGGGTKLTVLG

binding result [4]: binds
B4: TSTO1010 (antibody, V domains shown)
VH: EVQLVESGGGLVKPRGSLRLSCAASGFTFSAYGMNWVRQAPGKGLEWVSSISGDSRDIYYGASMKGRFTISRDNAKSSLYLQMNSLRAEDTAVYYCARGEGGELWAFDYWGLGVLVTVSS
VL: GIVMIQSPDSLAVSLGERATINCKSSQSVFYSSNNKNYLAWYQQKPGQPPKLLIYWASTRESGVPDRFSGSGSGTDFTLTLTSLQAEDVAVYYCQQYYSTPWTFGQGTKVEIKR

binding result [7]: binds
B8: TSTO1002 (antibody, V domains shown)
VH: EVQLVESGGGLVKPGGSLRLSCAASGFTFSNAWMNWVRQTPGKGLEWVGRIKTKTDGGTTDYAEPVKGRFTISRDDSKNTLYLQMNSLKTEDTAVYYCTRGAVADYWGQGTQVTVSS
VL: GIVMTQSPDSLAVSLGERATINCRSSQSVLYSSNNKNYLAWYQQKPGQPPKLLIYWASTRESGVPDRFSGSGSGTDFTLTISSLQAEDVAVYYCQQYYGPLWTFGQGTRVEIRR
